The nature of the data set: soluble fraction after stress (log2 fold change); higher = more stays soluble; pooled small domains, quantitative proteomics. Particulars: stress: pH 4. In a few lines:
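After pH 4 stress, pooled custom libraries of small protein domains were quantified with high-throughput quantitative proteomics. Aggregation propensity is taken from the fold change in each domain's soluble amount following the acid stress. The scale is log2, where higher values mean more stayed soluble.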
As to “HMAENPAYTKGVVNRLYKIRATPYYSYSYNVDQKTYEGRGKQYGEYENLHIGDTITVYYQRSNPSNSEA”, the “soluble fraction (log2)” value was -0.112.
Take “HMAEPIEKIIIEGNQRIEALTIQSYLLLRVGEPFNRQLMNQTLKSLYATGYFSDVAVTRVSSSLLVK”: the “soluble fraction (log2)” value is -0.0595.
“HMAEPLEIGDTVRIIDGFYGGEIGVISELVNPDAKNAEFEQVRVRLDQDTELALPIHNVERVRL”: the “soluble fraction (log2)” value was -0.0894.
With “HMAEPRVQEVYFEFDGKQVEAGQVVSLIEQAYKNEGHQIGRIKDLKVYINSEEGKAYYVINGDDGEGKYIE” the figure was -0.67; with “HMAESLHVTAAALFEGRAMLGIDGSRRLLRVGETSPEGVKLVSATAREAVIEIDGRRQTLAPGRDT”, 0.0589; with “HMAESSLPKMPRDESKYIYHSVQPGETVYSLSKRYSVSESDIVKSNPGIDITKLSLGLEVAIPRI”, 0.0402.
Take “HMAEVAFEEQNIEQISNLLLRIQAIFAELMTALDKEKGGEIADNLERLYVFFLEKLGDANVRKDPAP”: the “soluble fraction (log2)” value is -0.135.
Regarding “HMAEVHVDGVTYQFSNPEQAVKFARKIAKELGLKVEVHGETVHVK”, the “soluble fraction (log2)” value stood at 0.0901.
On to “HMAEVTLTVREQEVLHLLARGMSNGEMAAHLYVEPTTIKYHLTGLLQKTGSRDRLQAVLWGIRAGMVH”, for which the “soluble fraction (log2)” value is -1.15.
With “HMAEWIYGKNVVKQSIEEGMVLKLILQRKEDPLFVLAQEKQIPVEILDRHKMTSLVKSDRHQGVAAQI” the figure was -0.645; with “HMAFEDYAGEYRSAADFAESLHEDTGTEIPESLRYYIDWQALARDMALNGEIMVFQTGFDEVHIFWS”, -0.878; with “HMAFEITSAERTRLEDIARKGLTAYTAEWKQLPASEKKALNKTGLQDFLKSMAADADSAREEEA”, 0.0412.
With “HMAFKEQLKAARLAKGYTQEQLATAIGVAKSTFTGYEKGNSEPNMLTIKKLMEILEVDANYLWY” the figure was -1.44; with “HMAFRWQQIADTITSMIANGSYPRGSRLPTEAALADSFGVNRHTVRRAVAALRDTGLVQPRQGAGVFVIG”, -0.103.
With “HMAFYQDIAVDLRKQIIDGVYPKNSRLPNQAELAKLYTTSRVTIQKALKILQIEGLIEGRQGSGSYVKGP”, the “soluble fraction (log2)” value was 0.0757.
With “HMAGHKVDFSELPARSQAFIGKNFPTEMVKNVEMERKDAKDHYTVLLSNGTKVMFDGTSGELTGV”, the “soluble fraction (log2)” value is 0.0825.
Regarding “HMAGISQGLAENVERRITTLLREQKEVPVHDIDFPGISRETVGQVLHQMVQEEKLLLDDGMISLSPNQ”, the “soluble fraction (log2)” value was -0.229.
Consider “HMAGPAGASEVANARDGDDETPLHMAARGGYPGIVRMLLAAGAKADAKSAAGLFPWNYAEDGSELHALLPR”, for which the “soluble fraction (log2)” value was -0.0731.
The value for “HMAGPTIVTNSQGVPNYHLVKRGDTVSQIAQRYGLNYRQIGAINNLDSKYTIYSGQWLKLWQG” was -0.00755; that for “HMAGQWQQDQNGWKYKTDNGDHMKNTWYQDSDSRWYYFGPDGYMKSSTMTPDGYVVGSDGAWIE” was -1.63.
The value for “HMAGSGDLNAKYLASIPAPMKAKILKAVANHYGVSISEFEEEVTDKDAEALYEYIPTRSMAVQVLRDMKG” was 0.199; that for “HMAGSGLPVPRFVSLADDRVNARAGPGFRFPINWVYLRKGFPVEVVDEFGPWRRIRDIDGVAAWIHLSMLS” was -0.848.
With “HMAGTAFPVRIMLKGIDRIGLLNEITGYISVAMGVNMRKLNLSTEDGIFEGYIDMLVHDRTVLESMIDNL” the figure was 0.22; with “HMAGTELASIKEIQSLVDRSEEALSARNFFWPKDKSESMLLSFRNMFSRLKLTKMDVQIFHGIFKVMEKS”, 0.0341; with “HMAGVSVTSLTTFWRLAADTPDTPSGADDPSGWSRTEPSIPDGYEGKLYRTIRTIMSDGTATWTSPD”, 0.0531.
With “HMAGYDTYMVDRDAELLPWLLETLQRESRSKVKATLQGNGIKVNGKRVTQFNYPLKAGMKVSVSKSK”, the “soluble fraction (log2)” value is 0.129.
With “HMAHILDLMELKQILRLHMDGLSNRRISDTLGIHRNTINSYVSQFKASKHGIEELLKLSDYELAQLFP” the figure was -1.39.
With “HMAHRYQQIADDLGRRVEAGEFAAGRLLPSEATLSGQYKASRVTVRKALEALRTDGLVESRQGFGWFVAAD”, the “soluble fraction (log2)” value stood at 0.262.
Regarding “HMAIADQPISAEHFDKLRQVLNSNTQETIASAKQHWASISNNAEFTNENVTRTLLEEMLAFIKSAS”, the “soluble fraction (log2)” value was -0.887.
The value for “HMAIDVQELARTRLRSLRTTLGYSLDELAARTHLSPSTISRLETGKRSLSLDVVVPLAQALHVSLDVLFEA” was -0.666; that for “HMAIEGIFEKYQRRSDQLIPILQDVQKEFGYIAPESVRHISRYLRISENQIFGVSSFYAQFRFT” was -0.422; that for “HMAIGTDPETGISVVADGTDFIWTRSGATSTIFLRLDSENSYILNVKQGDFEVIDYELGEGQENAINIDQS” was -0.463.
In the case of “HMAIPEVDPAKQGVSATQLAALDALAHRNAGEGRVAGMVNVVIRNGEIVYYKATGPRHIDGGAPLKSTDLF”, the “soluble fraction (log2)” value was determined as 0.0394.
For the sequence “HMAIQGVRLYERTLETGDPWLDRPLSTLSTGTRLIILVRRGGDVLIPKGDTVLLAGDTLVINDS”, the “soluble fraction (log2)” value is -1.94.
With “HMAIRPDAAVSSHAVKQRLQSLIRAEDPAAPLSDEALRLALSALGIGVSRRAVAKYRAEMGIPSSSQRKK” the figure was 0.168.
The value for “HMAISQYGSQSDEVTKIQTRLKAWGYFDGPVTAYYGSQTTEAVKKFQQKHGLSATGVADAKTLELIGLP” was 0.056.
For “HMAITLEQFLSVNPHIRNNLYGNAVELVKDKDFSVLSDKLKASSKWANEPSLYKILSHYDEIIS”, the “soluble fraction (log2)” value worked out at 0.207.
With “HMAKDSQSADVLQAIFDGSKVLNGLALDQDMRWDLINGLVMSGRLGVEAIEAEAAKLAKLVEELEFR” the figure was -1.21; with “HMAKETLRANIKDYIQKQIASGVYRPGDRIVETQLAREMNVSQAPVREAILELVSLGLLEERPYSGHMVRQ”, -0.843; with “HMAKIKVFELKNQINSLIKNKIESKDIIDFIETNFGVKKSHSSALEENEANFIKNYFVHADKA”, -0.141.
The value for “HMAKIPASTVVEIDGAPVVVAVRVNARARSYRLSIPHSGGPLLTLPPHGKWAEAEAFLLRHHNWLAARLHR” was 0.22; that for “HMAKQEPTDNGYDIYKVTASVLNVRNGAGTSYAVAYQLSKEDYVEVVSIDKGWAKLKDGKYVSADWITLYK” was -0.596; that for “HMAKRINVKLIMELSAGGLTQNEIASSRHFSKTSVNLVLKTARELNVSAADLREMSPEEAYRLFFPEK” was -0.0837.
Regarding “HMAKRKTEKTSVLEEIDGVGKARARALLARFGGLSGVKAASPEELRTVRGITPEIAENIRRYFQ”, the “soluble fraction (log2)” value is 0.134.
For “HMAKRMRNPNGYGSIVKLSGNRRNPYMVKVNTHMDERYYPVYDILGYYPTWADASIALAKYNDDPYNVS”, the “soluble fraction (log2)” value was found to be 0.0269.
As to “HMAKRQATIVYEGTNVRSGPSTSSAIVKRTGKGESYPIVSTKGDWYEIKLSNGDSAYVASWVVQTVD”, the “soluble fraction (log2)” value was -0.871.
The value for “HMAKRYFVTTGVRVRTKPDTANSEVLTVLDEGSEIDYKGDYNNEWVKINYNGQEAYIAKQYVRSEE” was -0.13; that for “HMAKSDLNYLDFKSKLEAGEIAKASVIRNEDTFKVTLQNGEVYNVTSPDYEDFRKELLEAGVDIQVSK” was 0.022; that for “HMAKSMRHLIVPSRETSLWRDKLSTNGWLSKGYGIHNLDDYRGIPLNETAPKIIEGLEITELEPIS” was -0.755.
Regarding “HMAKTALEQAQAMVAAYVAAEQQILLGKEVRMGGPGIDRWLRFEDLQEVRAGRKEWESTVTRLQNTAA”, the “soluble fraction (log2)” value is -0.769.

The record behind these values is the domain aggregation screens of Martell et al. (2025).
